Experimental data from patent US20020037999.

Tested on: p54 SAPKβ (JNK3) fused to the WIN-ZIP B1 leucine zipper and Myc tag

Substance | tyrosine phosphorylation of p54 (anti-Myc immunoprecipitates probed with anti-PTyr)
v-Src fused at the N-terminus with HA tag plus WIN-ZIP A1 leucine zipper | p54 is phosphorylated on tyrosine only when the WIN-ZIP A1-Src fusion is present
v-Src fused at the N-terminus with HA tag alone | p54 is phosphorylated on tyrosine only when the WIN-ZIP A1-Src fusion is present (so not with v-Src carrying the HA tag alone)
